Measured values reported in publication PMC6707239.

How the values were obtained:
[1] = biological target: human mitochondrial heat shock protein 60 (hsp60), wild type (human) (UniProt P10809); experiment: dynamic light scattering; Malvern Zetasizer Nano ZS, hsp60 (wild type or mutant) without nucleotide (APO); percent volume
[2] = biological target: human mitochondrial heat shock protein 60 (hsp60), wild type (human) (UniProt P10809); experiment: negative-stain electron microscopy; hsp60 and hsp10 (1:1 molar ratio) with 2 mM Mg-ADP, about 5 min at room temperature, no substrate
[3] = biological target: human mitochondrial heat shock protein 60 (hsp60), wild type (human) (UniProt P10809); experiment: dynamic light scattering; 1 uM hsp60 (wild type or mutant), 2 uM hsp10, 2 mM ADP; 5 min at 37 C; unbound nucleotide removed on desalting spin columns
[4] = biological target: human mitochondrial heat shock protein 60 (hsp60), wild type (human) (UniProt P10809); experiment: dynamic light scattering; 1 uM hsp60 (wild type or mutant), 2 uM hsp10, 100 mM ATP, 100 mM MgCl2; 5 min at 37 C; unbound nucleotide removed on desalting spin columns
[5] = biological target: human mitochondrial heat shock protein 60 (hsp60), wild type (human) (UniProt P10809); experiment: negative-stain electron microscopy; wild type hsp60/hsp10 with 2 mM ATP, about 5 min at room temperature, no substrate; bullet reconstruction, C7 symmetry, about 17 A
[6] = biological target: human mitochondrial heat shock protein 60 (hsp60), wild type (human) (UniProt P10809); experiment: negative-stain electron microscopy; hsp60 and hsp10 (2:1 molar ratio) with 100 mM ATP, about 5 min at room temperature, no substrate; football reconstruction, D7 symmetry, about 20 A
[7] = biological target: human mitochondrial heat shock protein 60 (hsp60), wild type (human) (UniProt P10809); experiment: negative-stain electron microscopy; purified hsp60/hsp10 at 0.2 mg/ml on carbon grids, no nucleotide and no substrate (APO conformation); class averages and single-particle reconstruction

Sequence of human mitochondrial heat shock protein 60 (hsp60), wild type (P10809 27-573): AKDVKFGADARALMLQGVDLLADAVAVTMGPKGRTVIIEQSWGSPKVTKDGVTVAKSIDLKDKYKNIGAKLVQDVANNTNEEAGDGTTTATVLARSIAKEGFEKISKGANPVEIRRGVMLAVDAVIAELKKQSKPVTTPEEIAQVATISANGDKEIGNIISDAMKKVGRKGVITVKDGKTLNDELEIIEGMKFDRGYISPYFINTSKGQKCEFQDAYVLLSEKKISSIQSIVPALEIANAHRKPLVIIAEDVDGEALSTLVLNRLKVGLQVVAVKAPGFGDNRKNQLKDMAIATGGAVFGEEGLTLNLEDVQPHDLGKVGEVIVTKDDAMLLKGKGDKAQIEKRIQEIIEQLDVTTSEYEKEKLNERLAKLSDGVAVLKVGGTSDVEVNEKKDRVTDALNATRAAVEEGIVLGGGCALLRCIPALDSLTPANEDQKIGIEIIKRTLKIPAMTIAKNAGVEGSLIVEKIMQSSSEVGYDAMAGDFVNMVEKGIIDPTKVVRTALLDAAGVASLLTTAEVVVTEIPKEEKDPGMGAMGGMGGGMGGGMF

- stoichiometry N [1]: 14
- stoichiometry N [2]: 7
- stoichiometry N [3]: 14
- stoichiometry N [4]: 14
- stoichiometry N [5]: 14
- stoichiometry N [6]: 14
- stoichiometry N [7]: 14
Substance: human mitochondrial heat shock protein 60 (hsp60), wild type (from UniProt P10809 27-573) (natural protein)
